Residue numbers refer to the chain shown, from its start.
B1: MS-87 (antibody, V domains shown)
VH: QVQLVQSGPEVRKPGTSVKVSCKAPGNTLKTYDLHWVRSVPGQGLQWMGWISHEGDKKVIVERFKAKVTITRDRSTNTAYLQLSGLTSGDTAVYYCAKGSKHRLRDYALYDDDGALNWAVDVDYLSNLEFWGQGTAVTVSS
VL: DFVLTQSPHSLSVTPGESASISCKSSHSLIHGDRNNYLAWYVQKPGRSPQLLIYLASSRASGVPDRFSGSGSDKDFTLKISRVETEDVGTYYCMQGRESPWTFGQGTKVDIKR
B2: MS-92 (antibody, V domains shown)
VH: B1 VH with Q46E, T71D, T87R
VL: B1 VL with F2I
B3: MS-70 (antibody, V domains shown)
VH: B1 VH with T71D, R72W
VL: B1 VL with R47Q
B4: MS-91 (antibody, V domains shown)
VH: B1 VH with P25S, N27Y, T71D, R72W
VL: B1 VL with H9L, K74T
B5: MS-89 (antibody, V domains shown)
VH: B1 VH with N27Y, R72W
VL: B1 VL with H9L
B6: MS-88 (antibody, V domains shown)
VH: B1 VH with P25S, N27Y, L29F
VL: B1 VL
B7: MS-90 (antibody)
VH: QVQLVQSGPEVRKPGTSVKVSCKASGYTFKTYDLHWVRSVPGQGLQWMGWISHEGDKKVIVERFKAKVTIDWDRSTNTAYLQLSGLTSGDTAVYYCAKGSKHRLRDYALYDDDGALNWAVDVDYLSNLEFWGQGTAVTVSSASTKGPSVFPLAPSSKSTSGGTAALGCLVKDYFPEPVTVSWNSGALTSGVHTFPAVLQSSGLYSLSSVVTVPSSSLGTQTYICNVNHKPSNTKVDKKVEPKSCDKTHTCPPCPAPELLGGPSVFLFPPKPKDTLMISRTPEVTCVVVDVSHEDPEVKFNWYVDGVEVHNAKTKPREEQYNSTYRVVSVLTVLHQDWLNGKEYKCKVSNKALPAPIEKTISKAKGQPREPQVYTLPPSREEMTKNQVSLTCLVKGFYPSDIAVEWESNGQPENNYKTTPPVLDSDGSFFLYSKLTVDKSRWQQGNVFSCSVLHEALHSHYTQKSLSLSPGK
VL: DFVLTQSPLSLSVTPGESASISCKSSHSLIHGDRNNYLAWYVQKPGRSPQLLIYLASSRASGVPDRFSGSGSDKDFTLKISRVETEDVGTYYCMQGRESPWTFGQGTKVDIKRTVAAPSVFIFPPSDEQLKSGTASVVCLLNNFYPREAKVQWKVDNALQSGNSQESVTEQDSKDSTYSLSSTLTLSKADYEKHKVYACEVTHQGLSSPVTKSFNRGEC
B8: MS-67 (antibody)
VH: not shown
VL: B7 VL
B9: MS-66 (antibody)
VH: not shown
VL: B7 VL with F2I, L9H
B10: MS-67 (antibody)
VH: not shown
VL: B7 VL
B11: MS-66 (antibody)
VH: not shown
VL: B7 VL with F2I, L9H
B12: MS-68 (antibody)
VH: not shown
VL: B7 VL with L9H, S12P
B13: MS-69 (antibody)
VH: not shown
VL: B7 VL with L9H, S18P

Experiments:
Assay in all cases: cell-based or functional assay
[1] = biological target: HIV-1 Env of pseudovirus SC422661.8 (HIV-1)
[2] = biological target: HIV-1 Env of pseudovirus RHPA4259.7 (HIV-1)
[3] = biological target: HIV-1 Env of pseudovirus Du172.17 (HIV-1)
[4] = biological target: HIV-1 Env of pseudovirus BB1012-11.TC21 (HIV-1)
[5] = biological target: HIV-1 Env of pseudovirus CNE52 (HIV-1)
[6] = biological target: HIV-1 Env of pseudovirus 0260.v5.c36 (HIV-1)
[7] = biological target: HIV-1 pseudovirus 263-8 (HIV-1)
[8] = biological target: HIV-1 pseudovirus SC05.8C11.2344 (HIV-1)
[9] = biological target: HIV-1 pseudovirus X1193_c1 (HIV-1)
[10] = biological target: HIV-1 pseudovirus Ce1176_A3 (HIV-1)
[11] = biological target: HIV-1 pseudovirus AC10.0.29 (HIV-1)
[12] = biological target: HIV-1 pseudovirus 6952.v1.c20 (HIV-1)

Binder | neutralization IC50 [1] [µg/mL] | neutralization IC80 [1] [µg/mL] | neutralization IC50 [2] [µg/mL] | neutralization IC80 [2] [µg/mL] | neutralization IC50 [3] [µg/mL] | neutralization IC80 [3] [µg/mL] | neutralization IC50 [4] [µg/mL] | neutralization IC80 [4] [µg/mL] | neutralization IC50 [5] [µg/mL] | neutralization IC80 [5] [µg/mL] | neutralization IC50 [6] [µg/mL] | neutralization IC80 [6] [µg/mL] | IC50 (neutralization in TZM.bl cells) [7] [µg/mL] | IC80 (neutralization in TZM.bl cells) [7] [µg/mL] | IC50 (neutralization in TZM.bl cells) [8] [µg/mL] | IC80 (neutralization in TZM.bl cells) [8] [µg/mL] | IC50 (neutralization in TZM.bl cells) [9] [µg/mL] | IC80 (neutralization in TZM.bl cells) [9] [µg/mL] | IC50 (neutralization in TZM.bl cells) [10] [µg/mL] | IC80 (neutralization in TZM.bl cells) [10] [µg/mL] | other results
B1 | 0.711 | 13.9 | 0.294 | 1.09 | > 25 | > 25 | 0.023 | 0.102 | 2.69 | > 25 | 0.114 | 1.01 |  |  |  |  |  |  |  |  | 
B2 | 1.53 | > 25 | 0.25 | 1.16 | 6.85 | > 25 | 0.029 | 0.127 | 3.92 | > 25 | 0.044 | 0.35 |  |  |  |  |  |  |  |  | 
B3 |  |  |  |  |  |  |  |  |  |  |  |  | 0.016 | 0.047 | 0.508 | 1.36 | 0.111 | 0.413 | 0.06 | 0.968 | IC50 (neutralization in TZM.bl cells) [11]: 0.053 µg/mL; IC80 (neutralization in TZM.bl cells) [11]: 0.206 µg/mL; IC50 (neutralization in TZM.bl cells) [12]: 0.285 µg/mL; IC80 (neutralization in TZM.bl cells) [12]: 4.84 µg/mL
B4 | 1.66 | 22.1 | 0.267 | 1.82 | 3.85 | 23.9 | 0.037 | 0.17 | 1.41 | 10.6 | 0.046 | 0.171 |  |  |  |  |  |  |  |  | 
B5 | 0.786 | > 25 | 0.29 | 1.04 | 11.9 | > 25 | 0.032 | 0.143 | 2.34 | 23.8 | 0.036 | 0.197 |  |  |  |  |  |  |  |  | 
B6 | 1.41 | > 25 | 0.504 | 2.51 | > 25 | > 25 | 0.02 | 0.088 | 5.86 | > 25 | 0.178 | 1.51 |  |  |  |  |  |  |  |  | 
B7 | 1.48 | > 25 | 0.254 | 1.33 | 4.07 | 15.6 | 0.044 | 0.204 | 1.05 | 8.56 | 0.03 | 0.168 |  |  |  |  |  |  |  |  | 
B8 |  |  |  |  |  |  |  |  |  |  |  |  | 0.011 | 0.037 | 0.631 | 2.14 | 0.075 | 0.303 | 0.105 | 1.9 | IC50 (neutralization in TZM.bl cells) [11]: 0.031 µg/mL; IC80 (neutralization in TZM.bl cells) [11]: 0.186 µg/mL; IC50 (neutralization in TZM.bl cells) [12]: 0.28 µg/mL; IC80 (neutralization in TZM.bl cells) [12]: 7.89 µg/mL
B9 |  |  |  |  |  |  |  |  |  |  |  |  | 0.017 | 0.06 | 0.811 | 2.54 | 0.086 | 0.322 | 0.165 | 5.43 | IC50 (neutralization in TZM.bl cells) [11]: 0.035 µg/mL; IC80 (neutralization in TZM.bl cells) [11]: 0.213 µg/mL; IC50 (neutralization in TZM.bl cells) [12]: 0.284 µg/mL; IC80 (neutralization in TZM.bl cells) [12]: > 25 µg/mL
B10 | 0.549 | 2.83 | 0.129 | 0.706 | 1.76 | 9.31 | 0.017 | 0.071 | 0.212 | 1.81 | 0.023 | 0.088 |  |  |  |  |  |  |  |  | 
B11 | 0.902 | 5.82 | 0.238 | 0.745 | 2.08 | 11.3 | 0.017 | 0.074 | 0.408 | 3.74 | 0.024 | 0.092 |  |  |  |  |  |  |  |  | 
B12 |  |  |  |  |  |  |  |  |  |  |  |  | 0.011 | 0.038 | 0.708 | 1.95 | 0.1 | 0.287 | 0.096 | 1.64 | IC50 (neutralization in TZM.bl cells) [11]: 0.04 µg/mL; IC80 (neutralization in TZM.bl cells) [11]: 0.169 µg/mL; IC50 (neutralization in TZM.bl cells) [12]: 0.206 µg/mL; IC80 (neutralization in TZM.bl cells) [12]: 12.9 µg/mL
B13 |  |  |  |  |  |  |  |  |  |  |  |  | 0.01 | 0.046 | 0.456 | 1.69 | 0.072 | 0.326 | 0.087 | 1.71 | IC50 (neutralization in TZM.bl cells) [11]: 0.029 µg/mL; IC80 (neutralization in TZM.bl cells) [11]: 0.169 µg/mL; IC50 (neutralization in TZM.bl cells) [12]: 0.182 µg/mL; IC80 (neutralization in TZM.bl cells) [12]: 3.06 µg/mL
